# Positions count from the first letter of the chain named.
# B1: Ab#3 (bispecific antibody, human IgG1, kappa)
# heavy: QLQLQESGPGLVKPSETLSLTCTVSGGSISSSVYYWSWIRQPPGKGLEWIGVIYPSGNTYYSPSLKSRVTISVDTSKNQFSLKLSSVTAADTAVYYCARTIYDLFDIWGQGTMVTVSSASTKGPSVFPLAPSSKSTSGGTAALGCLVKDYFPEPVTVSWNSGALTSGVHTFPAVLQSSGLYSLSSVVTVPSSSLGTQTYICNVNHKPSNTKVDKKVEPKSCDKTHTCPSCPAPEFLGGPSVFLFPPKPKDTLMISRTPEVTCVVVDVSQEDPEVQFNWYVDGVEVHNAKTKPREEQFNSKYRVVSVLTVLHQDWLNGKEYKCKVSNKGLPSSIEKTISKAKGQPREPQVYTLPPSREEMTKNQVSLSCAVKGFYPSDIAVEWESNGQPENNYKTTPPVLDSDGSFFLVSKLTVDKSRWQQGNVFSCSVMHEALHNHYTQKSLSLSKSCDKTGGGGSGGGGSGGGGSGGGGSGGGGSGGGGSGGGGSGGGGSCPSCPAPEFLGGPSVFLFPPKPKDTLMISRTPEVTCVVVDVSQEDPEVQFNWYVDGVEVHNAKTKPREEQFNSDYRVVSVLTVLHQDWLNGKEYKCKVSNKGLPSSIEKTISKAKGQPREPQVYTLPPSREEMTKNQVSLWCLVKGFYPSDIAVEWESNGQPENNYKTTPPVLDSDGSFFLYSKLTVDKSRWQQGNVFSCSVMHEALHNHYTQKSLSLSGECGGGGSGGGGSQVQLVQSGSELKKPGESVKVSCKASGYTFTNYGMNWVRQAPGQGLKWMGWINTYTGESTYADDFKGRFAFSLDTSASTAYLQISSLKAEDTAVYFCARFAIKGDYWGQGTLVTVSSASTGGGGSGGGGSGGGGSGGGGSDIVMTQSPLSLPVTPGEPASISCRSTKSLLHSDGITYLYWYLQKPGQSPQLLIYQLSNLASGVPDRFSSSGSGTDFTLKISRVEAEDEGVYYCAQNLEIPRTFGQGTKVEIK
# light: DIQMTQSPSSVSASVGDRVTITCRASQGISSWLAWYQQKPGKAPKLLIYAASSLQSGVPSRFSGSGSGTDFTLTISSLQPEDFATYYCLQANSFPPTFGGGTKVEIKRTVAAPSVFIFPPSDEQLKSGTASVVCLLNNFYPREAKVQWKVDNALQSGNSQESVTEQDSKDSTYSLSSTLTLSKADYEKHKVYACEVTHQGLSSPVTKSFNRGEC
# notes: Anti-c-Met Fab / tandem Fc / anti-EpCAM scFv TFcBA; also called Antibody #3
# B2: Ab#8 (bispecific antibody, human IgG1, kappa)
# heavy: QLQLQESGPGLVKPSETLSLTCTVSGGSISSSVYYWSWIRQPPGKGLEWIGVIYPSGNTYYSPSLKSRVTISVDTSKNQFSLKLSSVTAADTAVYYCARTIYDLFDIWGQGTMVTVSSASTKGPSVFPLAPSSKSTSGGTAALGCLVKDYFPEPVTVSWNSGALTSGVHTFPAVLQSSGLYSLSSVVTVPSSSLGTQTYICNVNHKPSNTKVDKKVEPKSCDKTHTCPSCPAPEFLGGPSVFLFPPKPKDTLMISRTPEVTCVVVDVSQEDPEVQFNWYVDGVEVHNAKTKPREEQFNSKYRVVSVLTVLHQDWLNGKEYKCKVSNKGLPSSIEKTISKAKGQPREPQVYTLPPSREEMTKNQVSLSCAVKGFYPSDIAVEWESNGQPENNYKTTPPVLDSDGSFFLVSKLTVDKSRWQQGNVFSCSVMHEALHNHYTQKSLSLSKSCDKTGGGGSGGGGSGGGGSGGGGSGGGGSGGGGSGGGGSGGGGSCPSCPAPEFLGGPSVFLFPPKPKDTLMISRTPEVTCVVVDVSQEDPEVQFNWYVDGVEVHNAKTKPREEQFNSDYRVVSVLTVLHQDWLNGKEYKCKVSNKGLPSSIEKTISKAKGQPREPQVYTLPPSREEMTKNQVSLWCLVKGFYPSDIAVEWESNGQPENNYKTTPPVLDSDGSFFLYSKLTVDKSRWQQGNVFSCSVMHEALHNHYTQKSLSLSGECGGGGSGGGGSQVQLVQSGAEVKKPGESVKISCKASGYTFTNYGMNWVRQAPGQGLKWMGWINTYTGESTYADDFKGRFAFSLDTSASTAYLQLSSLRSEDTAVYFCARFAIKGDYWGQGTLVTVSSASTGGGGSGGGGSGGGGSGGGGSDIVMTQSPLSLPVTPGEPASISCRSTKSLLHSDGITYLYWYLQKPGQSPQLLIYQMSNLASGVPDRFSSSGSGTDFTLKISRVEAEDEGVYYCAQNLEIPRTFGGGTKLEIKRT
# light: B1 light
# notes: Anti-c-Met Fab / tandem Fc / anti-EpCAM scFv TFcBA; also called Antibody #8
# B3: Ab#4 (bispecific antibody, human IgG1, kappa)
# heavy: QLQLQESGPGLVKPSETLSLTCTVSGGSISSSVYYWSWIRQPPGKGLEWIGVIYPSGNTYYSPSLKSRVTISVDTSKNQFSLKLSSVTAADTAVYYCARTIYDLFDIWGQGTMVTVSSASTKGPSVFPLAPSSKSTSGGTAALGCLVKDYFPEPVTVSWNSGALTSGVHTFPAVLQSSGLYSLSSVVTVPSSSLGTQTYICNVNHKPSNTKVDKKVEPKSCDKTHTCPSCPAPEFLGGPSVFLFPPKPKDTLMISRTPEVTCVVVDVSQEDPEVQFNWYVDGVEVHNAKTKPREEQFNSKYRVVSVLTVLHQDWLNGKEYKCKVSNKGLPSSIEKTISKAKGQPREPQVYTLPPSREEMTKNQVSLSCAVKGFYPSDIAVEWESNGQPENNYKTTPPVLDSDGSFFLVSKLTVDKSRWQQGNVFSCSVMHEALHNHYTQKSLSLSKSCDKTGGGGSGGGGSGGGGSGGGGSGGGGSGGGGSGGGGSGGGGSCPSCPAPEFLGGPSVFLFPPKPKDTLMISRTPEVTCVVVDVSQEDPEVQFNWYVDGVEVHNAKTKPREEQFNSDYRVVSVLTVLHQDWLNGKEYKCKVSNKGLPSSIEKTISKAKGQPREPQVYTLPPSREEMTKNQVSLWCLVKGFYPSDIAVEWESNGQPENNYKTTPPVLDSDGSFFLYSKLTVDKSRWQQGNVFSCSVMHEALHNHYTQKSLSLSGECGGGGSGGGGSDIVMTQSPLSLPVTPGEPASISCRSTKSLLHSDGITYLYWYLQKPGQSPQLLIYQLSNLASGVPDRFSSSGSGTDFTLKISRVEAEDEGVYYCAQNLEIPRTFGQGTKVEIKRTGGGGSGGGGSGGGGSGGGGSGQVQLVQSGSELKKPGESVKVSCKASGYTFTNYGMNWVRQAPGQGLKWMGWINTYTGESTYADDFKGRFAFSLDTSASTAYLQISSLKAEDTAVYFCARFAIKGDYWGQGTLVTVSS
# light: B1 light
# notes: Anti-c-Met Fab / tandem Fc / anti-EpCAM scFv TFcBA; also called Antibody #4
# B4: Ab#6 (bispecific antibody, human IgG1, kappa)
# heavy: QLQLQESGPGLVKPSETLSLTCTVSGGSISSSVYYWSWIRQPPGKGLEWIGVIYPSGNTYYSPSLKSRVTISVDTSKNQFSLKLSSVTAADTAVYYCARTIYDLFDIWGQGTMVTVSSASTKGPSVFPLAPSSKSTSGGTAALGCLVKDYFPEPVTVSWNSGALTSGVHTFPAVLQSSGLYSLSSVVTVPSSSLGTQTYICNVNHKPSNTKVDKKVEPKSCDKTHTCPSCPAPEFLGGPSVFLFPPKPKDTLMISRTPEVTCVVVDVSQEDPEVQFNWYVDGVEVHNAKTKPREEQFNSKYRVVSVLTVLHQDWLNGKEYKCKVSNKGLPSSIEKTISKAKGQPREPQVYTLPPSREEMTKNQVSLSCAVKGFYPSDIAVEWESNGQPENNYKTTPPVLDSDGSFFLVSKLTVDKSRWQQGNVFSCSVMHEALHNHYTQKSLSLSKSCDKTGGGGSGGGGSGGGGSGGGGSGGGGSGGGGSGGGGSGGGGSCPSCPAPEFLGGPSVFLFPPKPKDTLMISRTPEVTCVVVDVSQEDPEVQFNWYVDGVEVHNAKTKPREEQFNSDYRVVSVLTVLHQDWLNGKEYKCKVSNKGLPSSIEKTISKAKGQPREPQVYTLPPSREEMTKNQVSLWCLVKGFYPSDIAVEWESNGQPENNYKTTPPVLDSDGSFFLYSKLTVDKSRWQQGNVFSCSVMHEALHNHYTQKSLSLSGECGGGGSGGGGSDIVMTQSPLSLPVTPGEPASISCRSTKSLLHSDGITYLYWYLQKPGQSPQLLIYQLSNLASGVPDRFSSSGSGTDFTLKISRVEAEDEGVYYCAQNLEIPRTFGGGTKLEIKRTGGGGSGGGGSGGGGSGGGGSQVQLVQSGAEVKKPGESVKISCKASGYTFTNYGMNWVRQAPGQGLKWMGWINTYTGESTYADDFKGRFAFSLDTSASTAYLQLSSLRSEDTAVYFCARFAIKGDYWGQGTLVTVSS
# light: B1 light
# notes: Anti-c-Met Fab / tandem Fc / anti-EpCAM scFv TFcBA; also called Antibody #6
# B5: Ab#9 (bispecific antibody, human IgG1, kappa)
# heavy: QLQLQESGPGLVKPSETLSLTCTVSGGSISSSVYYWSWIRQPPGKGLEWIGVIYPSGNTYYSPSLKSRVTISVDTSKNQFSLKLSSVTAADTAVYYCARTIYDLFDIWGQGTMVTVSSASTKGPSVFPLAPSSKSTSGGTAALGCLVKDYFPEPVTVSWNSGALTSGVHTFPAVLQSSGLYSLSSVVTVPSSSLGTQTYICNVNHKPSNTKVDKKVEPKSCDKTHTCPSCPAPEFLGGPSVFLFPPKPKDTLMISRTPEVTCVVVDVSQEDPEVQFNWYVDGVEVHNAKTKPREEQFNSKYRVVSVLTVLHQDWLNGKEYKCKVSNKGLPSSIEKTISKAKGQPREPQVYTLPPSREEMTKNQVSLSCAVKGFYPSDIAVEWESNGQPENNYKTTPPVLDSDGSFFLVSKLTVDKSRWQQGNVFSCSVMHEALHNHYTQKSLSLSKSCDKTGGGGSGGGGSGGGGSGGGGSGGGGSGGGGSGGGGSGGGGSCPSCPAPEFLGGPSVFLFPPKPKDTLMISRTPEVTCVVVDVSQEDPEVQFNWYVDGVEVHNAKTKPREEQFNSDYRVVSVLTVLHQDWLNGKEYKCKVSNKGLPSSIEKTISKAKGQPREPQVYTLPPSREEMTKNQVSLWCLVKGFYPSDIAVEWESNGQPENNYKTTPPVLDSDGSFFLYSKLTVDKSRWQQGNVFSCSVMHEALHNHYTQKSLSLSGECGGGGSGGGGSQVQLQQSGGGLVKPGESVKISCAASGYTFTNYGMNWVKQAPGKGLKWMGWINTYTGESTYADDFKGRFTFSLETSASAAYLQINSLRPEDTAVYFCARFAIKGDYWGQGTTVTVSSASTGGGGSGGGGSGGGGSGGGGSGDIVMTQSPSSLSASVGDKATITCRSTKSLLHSNGITYLYWYLQKPGKAPKLLIYQMSNLASGVPDRFSSSGSGTEFTLTISSVQPEDEGTYYCAQNLEIPRTFGQGTKLEIK
# light: B1 light
# notes: Anti-c-Met Fab / tandem Fc / anti-EpCAM scFv TFcBA; also called Antibody #9
# B6: Ab#10 (bispecific antibody, human IgG1, kappa)
# heavy: B5 heavy with N896D, M919L
# light: B1 light
# notes: Anti-c-Met Fab / tandem Fc / anti-EpCAM scFv TFcBA; also called Antibody #10
# Biological target: T1, Human EpCAM-Fc-his tagged (human)
# T1 construct: also called Recombinant polyhistidine-tagged EpCAM-Fc; recombinant EpCAM
# T1 sequence (chain, as listed by the source): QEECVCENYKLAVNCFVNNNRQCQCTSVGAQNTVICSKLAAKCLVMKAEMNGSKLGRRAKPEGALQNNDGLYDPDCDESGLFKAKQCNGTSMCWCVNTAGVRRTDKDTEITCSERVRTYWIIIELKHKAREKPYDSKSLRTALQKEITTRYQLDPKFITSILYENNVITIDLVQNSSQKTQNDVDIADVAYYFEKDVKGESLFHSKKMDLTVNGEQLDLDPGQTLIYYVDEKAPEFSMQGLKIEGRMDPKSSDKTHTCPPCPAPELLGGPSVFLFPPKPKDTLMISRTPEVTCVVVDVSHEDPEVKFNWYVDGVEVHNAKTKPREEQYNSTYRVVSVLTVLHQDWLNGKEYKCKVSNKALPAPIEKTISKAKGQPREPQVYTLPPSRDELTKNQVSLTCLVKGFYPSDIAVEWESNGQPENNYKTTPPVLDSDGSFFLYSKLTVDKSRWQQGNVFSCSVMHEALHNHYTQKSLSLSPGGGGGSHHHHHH
# Assay: BLI (ForteBio Octet), antibody loaded on Protein A tips, recombinant polyhistidine-tagged EpCAM-Fc in solution, 1:1 model
# Procedure: For Octet analysis, all reagents and samples are brought to room temperature. Protein A sensor tips (ForteBio, #18-5010) are hydrated for 10 minutes in 1×PBS. Assay steps include: 1-2 minutes of equilibration in 1×PBS, 4 minutes of antibody loading (concentration of 50 μg/ml in 1×PBS), 1-2 minutes of baseline stabilization, 4 minutes of antibody:antigen association, and 4 minutes of antibody:antigen dissociation. 1×PBS is used as the matrix throughout. Data are analyzed with Octet Data Analysis software, processed, and fit to a 1:1 binding model to determine kinetic parameters (Kd, kₒₙ and kdiss).
# Table A-2 describes approximate EpCAM binding affinity and dissociation rate as determined for Ab#1, Ab#2, Ab#3, Ab#4, Ab#5, Ab#6, Ab#7, Ab#8, Ab#9, Ab#10, Ab#11, Ab#12, and Ab#13.
Kd,koff,Binder
17 nM,0.00174 s⁻¹,B1
16.7 nM,0.00098 s⁻¹,B2
19.4 nM,0.00174 s⁻¹,B3
11.2 nM,0.00122 s⁻¹,B4
10 nM,0.00043 s⁻¹,B5
26.2 nM,0.00211 s⁻¹,B6

# Reference: patent publication US20140302035A1 (MERRIMACK PHARMACEUTICALS, published 2014)
